These results are taken from publication doi:10.1101/2021.09.28.462122.

This assay concerns the target NADP+-specific glutamate dehydrogenase from Aspergillus terreus (Aspergillus terreus). The experiment in a line: crystal structure.

Broadly, the stoichiometry N is the number of molecules, sites or subunits per partner or assembly. Substance “NADP+-specific glutamate dehydrogenase from Aspergillus terreus (enzyme)” came in with a stoichiometry N of 6.
